Changes are numbered by the printed parent chain. In names and notes the source's numbering stands.
Key:
15-PGDH = biological target: T1, 15-PGDH (Homo sapiens, UniProt P15428); test: cryo-EM structure of the 15-PGDH-NADH complex ([…] Å); thermal shift; type: binding
T1 construct: gene HPGD; recombinant human 15-PGDH with C-terminal TEV-cleavable 6xHis tag, homodimer
T1 sequence (P15428 1-256): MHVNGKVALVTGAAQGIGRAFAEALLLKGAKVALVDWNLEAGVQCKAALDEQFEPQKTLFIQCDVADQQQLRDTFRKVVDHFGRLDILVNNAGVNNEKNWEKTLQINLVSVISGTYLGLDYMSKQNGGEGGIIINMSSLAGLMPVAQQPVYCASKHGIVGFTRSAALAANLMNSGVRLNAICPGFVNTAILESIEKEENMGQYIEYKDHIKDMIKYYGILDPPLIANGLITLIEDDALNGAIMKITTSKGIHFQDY

[1] = substrate: CCCCC[C@H](O)/C=C/[C@H]1[C@H](O)CC(=O)[C@@H]1C/C=C\CCCC(=O)O; test: Michaelis-Menten kinetics of PGE2 oxidation (Km); type: biochemical, Homo sapiens; conditions: NAD+ active site

## NC(=O)C1=CN([C@@H]2O[C@H](COP(=O)(O)OP(=O)(O)OC[C@H]3O[C@@H](n4cnc5c(N)ncnc54)[C@H](O)[C@@H]3O)[C@@H](O)[C@H]2O)C=CC1 [NADH]
15-PGDH
  cryo-EM structure of the 15-PGDH-NADH complex (3.3 Å); thermal shift: we employed cryo-EM to solve the structure of the 15-PGDH-NADH complex in the absence of inhibitor

B1: 15-PGDH (Homo sapiens) (protein)
chain: MHVNGKVALVTGAAQGIGRAFAEALLLKGAKVALVDWNLEAGVQCKAALDEQFEPQKTLFIQCDVADQQQLRDTFRKVVDHFGRLDILVNNAGVNNEKNWEKTLQINLVSVISGTYLGLDYMSKQNGGEGGIIINMSSLAGLMPVAQQPVYCASKHGIVGFTRSAALAANLMNSGVRLNAICPGFVNTAILESIEKEENMGQYIEYKDHIKDMIKYYGILDPPLIANGLITLIEDDALNGAIMKITTSKGIHFQDYDTTPFQAKTQ
notes: recombinant human 15-PGDH with C-terminal TEV-cleavable 6xHis tag
[1]
  Km: 2.2 µM

B2: 15-PGDH (Homo sapiens; Y217A) (protein)
chain: B1 chain with Y217A
notes: as for B1
[1]
  Km: 11 µM
